Test [1] has as its target T1, Rat Nectin-4 on CHO cells (rat, UniProt Q8R007 31-508 (mouse entry)).
T1 chain: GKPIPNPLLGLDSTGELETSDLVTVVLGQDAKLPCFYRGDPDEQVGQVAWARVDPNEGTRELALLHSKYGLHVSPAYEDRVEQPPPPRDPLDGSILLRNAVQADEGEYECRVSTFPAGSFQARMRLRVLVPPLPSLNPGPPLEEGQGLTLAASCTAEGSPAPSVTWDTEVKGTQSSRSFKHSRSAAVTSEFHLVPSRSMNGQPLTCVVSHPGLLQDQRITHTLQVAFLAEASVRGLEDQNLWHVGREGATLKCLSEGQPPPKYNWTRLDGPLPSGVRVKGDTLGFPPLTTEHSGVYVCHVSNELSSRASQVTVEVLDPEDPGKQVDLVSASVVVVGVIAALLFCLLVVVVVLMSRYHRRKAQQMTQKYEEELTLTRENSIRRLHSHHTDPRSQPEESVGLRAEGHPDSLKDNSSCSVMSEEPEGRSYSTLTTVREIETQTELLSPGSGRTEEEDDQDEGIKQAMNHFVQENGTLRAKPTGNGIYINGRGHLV
The test is described as follows: flow cytometry titration on CHO cells expressing rat Nectin-4, median MFI (PE). (In general: In flow cytometry, cells or beads pass a laser one at a time.)

Test [2] has as its target T2, huNectin4-C1C2-V5 (C1C2 construct, lacking the Ig-like V domain) (human, UniProt Q96NY8 148-510).
T2 construct: Expressed on CHO cells; also called Hu-Nectin4 IgC1C2-V5; Nectin4-C1C2-V5 sorted cells
T2 sequence: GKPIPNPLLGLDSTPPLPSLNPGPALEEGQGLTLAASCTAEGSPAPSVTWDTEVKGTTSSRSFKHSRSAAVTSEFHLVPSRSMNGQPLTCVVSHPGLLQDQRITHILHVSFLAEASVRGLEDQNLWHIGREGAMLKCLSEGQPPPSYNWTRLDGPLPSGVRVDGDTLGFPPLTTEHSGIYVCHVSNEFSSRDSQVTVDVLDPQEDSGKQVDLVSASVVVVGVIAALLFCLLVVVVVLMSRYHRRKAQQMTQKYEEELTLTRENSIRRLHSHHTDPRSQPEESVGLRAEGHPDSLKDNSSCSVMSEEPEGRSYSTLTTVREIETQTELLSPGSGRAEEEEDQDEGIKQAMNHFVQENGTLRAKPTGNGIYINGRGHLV
The test is described as follows: flow cytometry titration on Hu-Nectin4 IgC1C2-V5 sorted cells (row label printed IC50).

Test [3] deals with T3, wild-type human Nectin-4 on the CHO huNectin4 Cl.3C8 cell line (human, UniProt Q96NY8 32-510).
T3 construct: also called whole Nectin-4 protein; huNectin4 CI.3C8
T3 sequence: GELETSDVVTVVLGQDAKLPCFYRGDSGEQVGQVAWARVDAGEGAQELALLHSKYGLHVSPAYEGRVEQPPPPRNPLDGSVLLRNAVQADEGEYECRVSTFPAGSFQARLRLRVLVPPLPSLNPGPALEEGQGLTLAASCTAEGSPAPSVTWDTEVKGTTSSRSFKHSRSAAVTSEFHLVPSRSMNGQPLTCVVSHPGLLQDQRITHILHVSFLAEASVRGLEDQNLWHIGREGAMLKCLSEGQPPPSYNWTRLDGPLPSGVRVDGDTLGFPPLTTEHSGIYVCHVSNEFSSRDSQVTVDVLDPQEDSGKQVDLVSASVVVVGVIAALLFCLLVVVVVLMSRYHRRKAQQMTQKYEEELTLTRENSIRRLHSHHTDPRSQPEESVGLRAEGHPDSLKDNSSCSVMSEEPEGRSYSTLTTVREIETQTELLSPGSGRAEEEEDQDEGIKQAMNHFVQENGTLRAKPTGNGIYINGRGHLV
As to the kind of experiment: flow cytometry titration on CHO cells expressing wild-type human Nectin-4 (huNectin4), median MFI. As to the method:
The characterization of the binding of the antibodies on Nectin-4 domains was performed by flow cytometry using cells made to express the wild-type human Nectin-4 protein and cells made to express a modified Nectin-4 having the Ig-like C₂ type 1 and the Ig-like C₂ type 2 domains and lacking the Ig-like V domain (the C1C2 construct). The latter protein additionally bears a V5 tag for flow cytometry cell sorting, and cells were used as Nectin4-C1C2-V5 sorted cells.

In test [4] the target is T4, human Nectin-4 Mutant 7bis (human, UniProt Q96NY8 32-510).
T4 construct: Expressed on transfected HEK-293T cells; also called A72P/G73N/K197T/S199A
T4 chain: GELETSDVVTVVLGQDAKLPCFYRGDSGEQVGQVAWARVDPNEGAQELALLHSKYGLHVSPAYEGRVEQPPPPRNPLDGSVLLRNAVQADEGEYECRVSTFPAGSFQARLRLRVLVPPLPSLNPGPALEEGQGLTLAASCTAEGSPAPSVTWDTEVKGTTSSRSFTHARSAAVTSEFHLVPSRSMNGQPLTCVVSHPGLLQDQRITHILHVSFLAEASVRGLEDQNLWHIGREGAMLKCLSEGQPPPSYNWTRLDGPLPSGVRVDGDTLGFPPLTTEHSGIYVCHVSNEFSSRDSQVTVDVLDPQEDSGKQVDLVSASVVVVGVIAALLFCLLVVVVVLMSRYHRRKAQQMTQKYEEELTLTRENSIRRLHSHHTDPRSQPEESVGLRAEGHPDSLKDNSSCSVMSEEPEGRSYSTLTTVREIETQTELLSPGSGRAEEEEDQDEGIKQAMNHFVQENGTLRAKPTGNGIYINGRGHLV
The test is described as follows: binding to HEK-293T cells transfected with the Nectin-4 mutant.

A further test concerns the target T5, human Nectin-4 Mutant 7 (human, UniProt Q96NY8 32-510).
T5 construct: Expressed on transfected HEK-293T cells; also called S195A/K197T/S199A
T5 chain: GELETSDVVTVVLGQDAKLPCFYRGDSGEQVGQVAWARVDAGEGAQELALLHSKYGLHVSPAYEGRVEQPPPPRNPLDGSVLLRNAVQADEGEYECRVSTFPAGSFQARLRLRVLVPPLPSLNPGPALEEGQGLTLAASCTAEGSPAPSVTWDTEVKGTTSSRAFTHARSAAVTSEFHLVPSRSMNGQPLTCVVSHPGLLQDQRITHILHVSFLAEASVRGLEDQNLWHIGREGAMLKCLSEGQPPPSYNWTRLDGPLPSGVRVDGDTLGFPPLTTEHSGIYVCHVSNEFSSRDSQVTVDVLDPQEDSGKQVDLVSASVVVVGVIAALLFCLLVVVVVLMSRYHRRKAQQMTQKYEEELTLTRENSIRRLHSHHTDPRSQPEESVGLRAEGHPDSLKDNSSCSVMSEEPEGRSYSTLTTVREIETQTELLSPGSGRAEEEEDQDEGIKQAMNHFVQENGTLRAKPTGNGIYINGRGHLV
The test is described as above.

Test [5] deals with T6, Mouse Nectin-4 on CHO cells (mouse, UniProt Q8R007 32-508).
T6 construct: also called mouse Nectin 4 protein
T6 sequence: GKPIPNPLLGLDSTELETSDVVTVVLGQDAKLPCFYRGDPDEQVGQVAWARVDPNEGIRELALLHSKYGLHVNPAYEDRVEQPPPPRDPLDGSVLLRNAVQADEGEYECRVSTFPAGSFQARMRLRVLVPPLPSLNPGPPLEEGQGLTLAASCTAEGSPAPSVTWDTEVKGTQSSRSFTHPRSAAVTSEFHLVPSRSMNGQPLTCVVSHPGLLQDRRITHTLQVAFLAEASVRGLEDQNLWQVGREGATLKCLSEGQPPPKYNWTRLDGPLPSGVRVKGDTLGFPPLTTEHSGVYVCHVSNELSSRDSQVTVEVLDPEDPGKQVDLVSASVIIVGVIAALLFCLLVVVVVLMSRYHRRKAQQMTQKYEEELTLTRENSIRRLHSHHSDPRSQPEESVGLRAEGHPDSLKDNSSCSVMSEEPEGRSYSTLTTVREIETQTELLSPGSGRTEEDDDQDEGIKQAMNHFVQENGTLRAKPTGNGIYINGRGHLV
As to the kind of experiment: flow cytometry on CHO cells expressing mouse Nectin-4.

For test [6], the target named is T7, monomeric huNectin4-his-BirA protein (human, UniProt Q96NY8 32-349).
T7 construct: also called Human Nectin4-His-BirA; huNectin4-BirA
T7 sequence: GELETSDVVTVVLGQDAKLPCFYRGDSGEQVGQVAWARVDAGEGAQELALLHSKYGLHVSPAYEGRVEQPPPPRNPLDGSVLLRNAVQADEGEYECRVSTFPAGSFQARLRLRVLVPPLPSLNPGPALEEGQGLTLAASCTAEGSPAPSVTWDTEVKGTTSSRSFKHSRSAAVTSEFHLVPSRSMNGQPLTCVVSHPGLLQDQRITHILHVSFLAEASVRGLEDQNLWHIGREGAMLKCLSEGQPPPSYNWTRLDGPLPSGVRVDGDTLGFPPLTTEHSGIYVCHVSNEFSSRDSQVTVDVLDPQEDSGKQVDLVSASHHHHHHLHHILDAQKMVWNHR
As to the kind of experiment: SPR (Biacore T200), antibody captured on Protein A, monomeric huNectin4-his-BirA injected. As to the method: Antibodies were tested for binding affinity to the wild-type human Nectin-4 protein by SPR (Surface Plasmon Resonance) methods. Measurements were performed on a Biacore T200 apparatus (Biacore GE Healthcare) at 25° C. Sensorgrams were analyzed with Biacore T100 Evaluation software. A CMR Sensor Chip with immobilized Protein A at about 600 RU was used. Anti-Nectin-4 antibodies were captured onto the Protein-A chip (antibodies diluted to 1 μg/ml in HBS-EP+1× buffer and injected over 120s at 40 μL/min). […] The chip was regenerated with NaOh 10 mM 2× for 30s at 40 μl/min. The sensorgram sets were fitted using the 1:1 kinetic binding model or two state reaction model, as a function of the profile of the curves.
A general note: Surface plasmon resonance follows binding to a sensor surface in real time, without labels.

B1: Enfortumab (ASG-22ME) (antibody, V domains shown)
VH: EVQLVESGGGLVQPGGSLRLSCAASGFTFSSYNMNWVRQAPGKGLEWVSYISSSSSTIYYADSVKGRFTISRDNAKNSLSLQMNSLRDEDTAVYYCARAYYYGMDVWGQGTTVTVSS
VL: DIQMTQSPSSVSASVGDRVTITCRASQGISGWLAWYQQKPGKAPKFLIYAASTLQSGVPSRFSGSGSGTDFTLTISSLQPEDFATYYCQQANSFPPTFGGGTKVEIKR
In the case of B1, in test [1], the EC50 (read off the curve) – broadly, the concentration giving half of the maximal effect – is roughly 0.2 µg/mL.

B2: mAb3 (antibody, V domains shown)
VH: EVQLVESGGGLVQPGGSLRLSCAASGFTFSSYNMNWVRQAPGKGLEWVSYISSSSSTIYYADSVKGRFTISRDNAKNSLSLQMNSLRDEDTAVYYCARAYYYGMDVWGQGTTVTVSS
VL: DIQMTQSPSSVSASVGDRVTITCRASQGISGWLAWYQQKPGKAPKFLIYAASTLQSGVPSRFSGSGSGTDFTLTISSLQPEDFATYYCQQANSFPPTFGGGTKVEIKR
Turning to B2, in test [2], the EC50 (as a rule, the concentration needed to bring the measured effect to its halfway point) worked out at 0.156 µg/mL. For the same molecule, in test [3], the “EC50 (read off the curve)” value is roughly 0.2 µg/mL.

B3: antibody 5E7 (antibody, human IgG1, V domains shown)
VH: QVQLQQPGAELVKPGASVKLSCKASGYIFTSYWMHWVKQRPGQGLEWIGEIDPSDSYTNYNQKFKGKATLTLDKSSSTTYMQLSSLTSEDSAVYYCVRGYGNYGDYWGQGTTLTVSS
VL: DVVMTQAAFSNPVTLGTSASISCRSSKSLLHSNGITYLYWYLQKPGQSPQLLIYQMSNLASGVPDRFSSSGSGTDFTLRISRVEAEDVGVYYCAQNLELPWTFGGGTKLEIK
notes: Mouse variable domains; also called mAb6; Mab6
With B3, the binding result (in test [4]; with human Nectin-4 Mutant 7; in test [5]) was “no binding” each time. For the same molecule, a half-maximal response in test [2] (EC50) required 0.0524 µg/mL. The concentration for a half-maximal effect (EC50 (read off the curve)) in test [3] is roughly 0.05 µg/mL. Further, in test [6], the dissociation constant Kd (commonly the constant that tells how readily two partners part at equilibrium) is 4.8 nM. Besides, the koff (commonly a measure of how fast the partners let go of each other) in test [6] is 0.003 s⁻¹. In addition, the on-rate (kon) (commonly a measure of how fast the partners come together) in test [6] turned out to be 620000 M⁻¹ s⁻¹.

B4: antibody 10B12 (antibody, human IgG1, V domains shown)
VH: QVQLQQPGAELVKPGASVKLSCKASGYTFTSYWMHWVKQRPGQGLEWIGEIDPSDSYTNYNQKFKGKATLTVDKSSSTAYMQLSSLTSEDSAVYYCVRGYGNYGDYWGQGTTLTVSS
VL: DIVMTQAAFSNPVTLGTSASISCRSSKSLLHSNGITYLYWYLQKPGQSPQLLIYQMSNLASGVPDRFSSSGSGTDFTLRISRVEAEDVGVYYCAQNLELPWTFGGGTKLEIK
notes: Mouse variable domains; also called mAb7; Mab7
In the case of B4, the binding result in test [4] was “no binding”. In addition, in the test with human Nectin-4 Mutant 7, the binding result is on record as “no binding”. A half-maximal response in test [2] (EC50) required 0.0197 µg/mL. In addition, in test [5], the binding result is given as “no binding”. Also, in test [3], the “EC50 (read off the curve)” value was roughly 0.02 µg/mL. In test [6], this molecule showed a dissociation constant (Kd) of 12 nM, a koff of 0.01 s⁻¹ and a kon of 860000 M⁻¹ s⁻¹.

Source of the values: US20240325557A1 (INNATE PHARMA, published 2024).
